Biological target: T1, peptide-8 (DEIVNKVL), derived from the ESCRT-III family member Vps2p
T1 peptide: {5(6)‑carboxyfluorescein}-DEIVNKVL-NH2
Test: fluorescence polarisation

fold tighter than Vps4p: 8 fold
B1: Vps4p^L7C/A43C (MIT domain stabilised by a disulfide bond) (enzyme, S. cerevisiae, UniProt P52917 1-437, looked up)
chain: MSTGDFCTKGIELVQKAIDLDTATQYEEAYTAYYNGLDYLMLCLKYEKNPKSKDLIRAKFTEYLNRAEQLKKHLESEEANAAKKSPSAGSGSNGGNKKISQEEGEDNGGEDNKKLRGALSSAILSEKPNVKWEDVAGLEGAKEALKEAVILPVKFPHLFKGNRKPTSGILLYGPPGTGKSYLAKAVATEANSTFFSVSSSDLVSKWMGESEKLVKQLFAMARENKPSIIFIDEVDALTGTRGEGESEASRRIKTELLVQMNGVGNDSQGVLVLGATNIPWQLDSAIRRRFERRIYIPLPDLAARTTMFEINVGDTPCVLTKEDYRTLGAMTEGYSGSDIAVVVKDALMQPIRKIQSATHFKDVSTEDDETRKLTPCSPGDDGAIEMSWTDIEADELKEPDLTIKDFLKAIKSTRPTVNEDDLLKQEQFTRDFGQEGN
modifications: disulfide bond between C7 and C43 of the MIT domain

From article PMC11398535 (bioRxiv, 2024)
